# In paper PMC11879086, “Identification and characterization of a human MORC2 DNA binding region that is required for gene silencing” (Nucleic Acids Research, 2024):
# T1: MORC2 dephosphorylated (wild-type) (Homo sapiens, UniProt Q9Y6X9 1-1032)
# T1 sequence: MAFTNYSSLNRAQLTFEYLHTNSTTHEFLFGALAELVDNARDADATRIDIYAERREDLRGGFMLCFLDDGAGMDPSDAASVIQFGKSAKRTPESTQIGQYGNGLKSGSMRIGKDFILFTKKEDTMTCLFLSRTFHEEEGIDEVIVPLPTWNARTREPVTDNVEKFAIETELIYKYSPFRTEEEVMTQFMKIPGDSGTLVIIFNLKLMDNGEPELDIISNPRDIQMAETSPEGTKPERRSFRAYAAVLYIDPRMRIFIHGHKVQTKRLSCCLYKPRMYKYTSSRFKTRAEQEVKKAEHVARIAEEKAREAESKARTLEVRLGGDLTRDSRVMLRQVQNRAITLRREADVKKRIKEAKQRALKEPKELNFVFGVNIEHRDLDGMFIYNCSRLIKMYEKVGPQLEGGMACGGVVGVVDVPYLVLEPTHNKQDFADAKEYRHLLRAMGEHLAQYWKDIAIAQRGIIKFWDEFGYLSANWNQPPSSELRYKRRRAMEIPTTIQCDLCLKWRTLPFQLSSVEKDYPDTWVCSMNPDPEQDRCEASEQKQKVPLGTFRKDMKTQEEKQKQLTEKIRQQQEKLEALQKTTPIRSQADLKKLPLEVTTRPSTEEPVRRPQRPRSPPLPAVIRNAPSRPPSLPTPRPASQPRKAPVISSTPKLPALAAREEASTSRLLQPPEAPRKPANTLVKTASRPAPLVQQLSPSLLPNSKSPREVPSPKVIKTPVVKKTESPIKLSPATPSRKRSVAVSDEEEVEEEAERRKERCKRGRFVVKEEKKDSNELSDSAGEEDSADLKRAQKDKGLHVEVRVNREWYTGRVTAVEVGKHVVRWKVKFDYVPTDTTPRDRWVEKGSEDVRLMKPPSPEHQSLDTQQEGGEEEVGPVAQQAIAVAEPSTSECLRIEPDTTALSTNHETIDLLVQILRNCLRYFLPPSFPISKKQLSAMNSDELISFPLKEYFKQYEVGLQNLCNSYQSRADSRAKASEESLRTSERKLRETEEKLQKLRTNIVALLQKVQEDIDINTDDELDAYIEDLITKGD
# B1: Random 35mer dsDNA (dsDNA)
# DNA 1: ATAGGGTCCATCAGAATTCGGATGAACTCGGTGTG
# DNA 2: CACACCGAGTTCATCCGAATTCTGATGGACCCTAT
# Target: T1, MORC2 dephosphorylated (wild-type)
# Test: fluorescence anisotropy; apo; second listing ('5 or less'); FA/EMSA: 50 mM NaCl, 3 mM MgCl2, 20 mM Na-HEPES pH 7.4, 1 mM TCEP, 10% glycerol, 0.025 mM ZnCl2, 50 ug/ml BSA, room temperature; 1 nM nucleic acid (FA) or 20 nM DNA (EMSA)
# Conditions: protein: recombinant; tags: tag removed by TEV; chain copies: 2; label: 5'-6-FAM; blunt
binder,measurement,value
B1,Kd,< 5 nM
